# Results reported in PMC10157364.
# Columns and labels:
# [1] = biological target: ON103 and ON203 versus C0008 (SPR, Fig. 1D); assay: SPR; Biacore 3000; antibodies amine-coupled to CM5 chips (about 2,500; 1,500; 1,000 RU); MIF at 42-666 nmol/L in HBS-EP with 0.2% Proclin300 (3 hours, room temperature), 30 uL/minute; Langmuir 1:1 model with mass transfer; mean of flow cells 2-4
# [2] = biological target: all anti-oxMIF antibodies (quantitative oxMIF ELISA, Fig. 1C); assay: ELISA; quantitative oxMIF ELISA: 15 nmol/L C0008, ON103 or ON203 as capture antibodies; human or mouse MIF in buffers with 0.2% Proclin300 as standard curves; EC50
binder,measurement,setting,value
"human MIF treated with 0.2% Proclin300 (oxMIF surrogate) (natural protein, treated with 0.2% Proclin300 to transform MIF into an oxMIF surrogate) MPMFIVNTNVPRASVPDGFLSELTQQLAQATGKPPQYIAVHVVPDQLMAFGGSSEPCALCSLHSIGKIGGAQNRSYSKLLCGLLAERLRISPDRVYINYYDMNAANVGWNNSTFA",Kd,[1],3.5 to 6.1 nM
same,EC50,[2],0.6 to 0.7 nM
